From patent publication US20250388664A1 (BIOARCTIC, published 2025)

T1: truncated cTfR1 of SEQ ID NO:123 (cynomolgus monkey, UniProt Q5RDH6 122-760 (Pongo abelii entry))
T1 construct: also called cynomolgus TfR1
T1 chain: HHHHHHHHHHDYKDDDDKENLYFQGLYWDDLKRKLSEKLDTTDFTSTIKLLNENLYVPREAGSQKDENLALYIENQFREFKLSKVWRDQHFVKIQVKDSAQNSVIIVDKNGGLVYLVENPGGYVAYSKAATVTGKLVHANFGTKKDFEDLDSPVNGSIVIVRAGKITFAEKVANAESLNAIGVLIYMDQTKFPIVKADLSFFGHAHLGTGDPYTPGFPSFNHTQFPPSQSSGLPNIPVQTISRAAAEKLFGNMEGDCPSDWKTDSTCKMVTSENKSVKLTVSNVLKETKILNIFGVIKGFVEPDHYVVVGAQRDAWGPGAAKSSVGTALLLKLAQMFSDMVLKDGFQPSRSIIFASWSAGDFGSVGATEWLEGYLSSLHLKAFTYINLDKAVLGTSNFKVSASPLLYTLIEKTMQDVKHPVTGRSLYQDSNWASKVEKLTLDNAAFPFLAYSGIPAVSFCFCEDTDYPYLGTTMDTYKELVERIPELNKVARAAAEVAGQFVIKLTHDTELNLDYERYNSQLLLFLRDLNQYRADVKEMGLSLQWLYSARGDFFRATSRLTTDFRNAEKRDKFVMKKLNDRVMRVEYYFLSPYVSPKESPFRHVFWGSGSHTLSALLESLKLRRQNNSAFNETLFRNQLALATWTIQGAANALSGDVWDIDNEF


Experiments:
[1] = biological target: T2, truncated hTfR1 of SEQ ID NO:122 (human, UniProt P02786 122-760); test: SPR, TfR1 amine-coupled, Fab injected, 1:1 fit
T2 construct: also called human TfR1; Human TfR1
T2 sequence (P02786 other isoform, or with tags, fused parts or gaps limits assumed): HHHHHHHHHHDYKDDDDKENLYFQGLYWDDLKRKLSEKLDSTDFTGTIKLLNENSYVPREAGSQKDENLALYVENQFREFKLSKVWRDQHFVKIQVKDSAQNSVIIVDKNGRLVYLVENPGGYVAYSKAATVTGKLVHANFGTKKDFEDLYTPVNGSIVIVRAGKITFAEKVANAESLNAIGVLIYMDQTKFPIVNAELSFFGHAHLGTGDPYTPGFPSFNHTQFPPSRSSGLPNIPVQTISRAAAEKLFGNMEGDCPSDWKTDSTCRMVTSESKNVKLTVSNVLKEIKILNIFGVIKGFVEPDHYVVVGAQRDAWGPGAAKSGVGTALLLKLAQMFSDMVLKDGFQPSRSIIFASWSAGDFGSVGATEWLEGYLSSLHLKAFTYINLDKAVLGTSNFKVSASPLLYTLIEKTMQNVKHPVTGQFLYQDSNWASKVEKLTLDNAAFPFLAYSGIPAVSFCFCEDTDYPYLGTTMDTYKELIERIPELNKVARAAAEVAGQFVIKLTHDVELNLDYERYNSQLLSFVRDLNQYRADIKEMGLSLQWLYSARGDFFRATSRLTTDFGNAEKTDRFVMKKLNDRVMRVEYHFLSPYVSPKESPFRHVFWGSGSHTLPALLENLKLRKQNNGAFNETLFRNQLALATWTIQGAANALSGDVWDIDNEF
Description: (§1) Binding of the purified Fabs to human and cynomolgus TfR1 was evaluated using either SPR (FIG. 44) or indirect ELISA (FIG. 45). For SPR, a Biacore 8K instrument (Cytiva) was used. […] The Fabs were injected over the chip using a 2-fold dilution series in four steps starting at 100 nM. The interaction was measured using the single cycle kinetics method with a contact time of 120 s at a flow rate of 30 μl/min followed by a dissociation time of 1000 s. Regeneration of the surface between cycles was done by injecting 3M MgCl₂. The binding data was fitted to a 1:1 interaction model. The Fabs were diluted in HBS-EP+ (Cytiva, #BR100669). Experiments were performed at 25° C.

[2] = biological target: T1, truncated cTfR1 of SEQ ID NO:123; test: SPR, TfR1 amine-coupled, Fab injected, 1:1 fit
Description: as §1

[3] = biological target: T3, ectodomain of human TfR1 (His10-hTfR1; SEQ ID NO:110) (human, UniProt P02786 89-760); test: indirect ELISA: plate coated with 1 µg/ml hTfR1 ectodomain, Fab in 1:3 serial dilution, anti-human IgG F(ab')2-HRP
T3 construct: also called ectodomain of hTfR1
Description: For the indirect ELISA, half area 96-well plates (Corning, #3690) were coated with 1 μg/ml recombinant ectodomain of hTfR1 (SEQ ID NO:110) in PBS overnight at 4° C. The coated plates were blocked using Pierce protein-free blocking solution (Thermo Fisher Scientific, #37572) for 1 h at room temperature with shaking and washed four times in PBS containing 0.1% TWEEN-20. Serial dilutions (1:3) of various expressed constructs in incubation buffer (1% BSA, 0.1% TWEEN-20 in PBS) were incubated for 1 h at room temperature. […] Following four wash steps, K-Blue® Aqueous TMB substrate (Neogen, #331177) was added to the wells for 15 min at room temperature before the reaction was stopped with 1:1 dilution of 0.5 M H₂SO₄. The optical density at 450 nm was recorded (Spark, Tecan) and background signal was subtracted before analysis.

Binder	Kd [1] [nM]	Kd [2] [nM]	binding result [3]
h26D3 variant HC2 Fab (Fab, V domains shown, Single-mutant His-tagged Fab; also called Y32A) VH: EVQLVQSGAEVKKPGSSVKVSCKASGYIFTDANMDWVRQAPGQGLEWIGDINPDYDTTSYNEKFKGRATLTVDKSTSTAYMELSSLRSEDTAVYYCARGGYSGSSYYHPMDYWGQGTLVTVSS VL: DIQMTQSPSSVSASVGDRVTITCKSSQSLLYSTNQKNYLAWYQQKPGKAPKLLIYWASTRESGVPSRFSGSGSGTDFTLTISSLQPEDFATYYCQQYFIYPRTFGQGTKVEIK	8.7	12	
h26D3-HC8/LC1 (Fab, V domains shown, His-tagged Fab; also called double alanine mutant of h26D3 (VH Y60A, VL Y31A)) VH: EVQLVQSGAEVKKPGSSVKVSCKASGYIFTDYNMDWVRQAPGQGLEWIGDINPDYDTTSANEKFKGRATLTVDKSTSTAYMELSSLRSEDTAVYYCARGGYSGSSYYHPMDYWGQGTLVTVSS VL: DIQMTQSPSSVSASVGDRVTITCKSSQSLLASTNQKNYLAWYQQKPGKAPKLLIYWASTRESGVPSRFSGSGSGTDFTLTISSLQPEDFATYYCQQYFIYPRTFGQGTKVEIK			binds
h26D3 variant HC3 Fab (Fab, V domains shown, Single-mutant His-tagged Fab; also called D35A) VH: EVQLVQSGAEVKKPGSSVKVSCKASGYIFTDYNMAWVRQAPGQGLEWIGDINPDYDTTSYNEKFKGRATLTVDKSTSTAYMELSSLRSEDTAVYYCARGGYSGSSYYHPMDYWGQGTLVTVSS VL: DIQMTQSPSSVSASVGDRVTITCKSSQSLLYSTNQKNYLAWYQQKPGKAPKLLIYWASTRESGVPSRFSGSGSGTDFTLTISSLQPEDFATYYCQQYFIYPRTFGQGTKVEIK	16	168	
h26D3-HC3/LC5 (Fab, V domains shown, His-tagged Fab; also called double alanine mutant of h26D3 (VH D35A, VL Y97A)) VH: EVQLVQSGAEVKKPGSSVKVSCKASGYIFTDYNMAWVRQAPGQGLEWIGDINPDYDTTSYNEKFKGRATLTVDKSTSTAYMELSSLRSEDTAVYYCARGGYSGSSYYHPMDYWGQGTLVTVSS VL: DIQMTQSPSSVSASVGDRVTITCKSSQSLLYSTNQKNYLAWYQQKPGKAPKLLIYWASTRESGVPSRFSGSGSGTDFTLTISSLQPEDFATYYCQQAFIYPRTFGQGTKVEIK			binds
h26D3 variant LC6 Fab (Fab, V domains shown, Single-mutant His-tagged Fab; also called Y100A) VH: EVQLVQSGAEVKKPGSSVKVSCKASGYIFTDYNMDWVRQAPGQGLEWIGDINPDYDTTSYNEKFKGRATLTVDKSTSTAYMELSSLRSEDTAVYYCARGGYSGSSYYHPMDYWGQGTLVTVSS VL: DIQMTQSPSSVSASVGDRVTITCKSSQSLLYSTNQKNYLAWYQQKPGKAPKLLIYWASTRESGVPSRFSGSGSGTDFTLTISSLQPEDFATYYCQQYFIAPRTFGQGTKVEIK	8.5	9.4	
h26D3-HC3/LC1 (Fab, V domains shown, His-tagged Fab; also called double alanine mutant of h26D3 (VH D35A, VL Y31A)) VH: EVQLVQSGAEVKKPGSSVKVSCKASGYIFTDYNMAWVRQAPGQGLEWIGDINPDYDTTSYNEKFKGRATLTVDKSTSTAYMELSSLRSEDTAVYYCARGGYSGSSYYHPMDYWGQGTLVTVSS VL: DIQMTQSPSSVSASVGDRVTITCKSSQSLLASTNQKNYLAWYQQKPGKAPKLLIYWASTRESGVPSRFSGSGSGTDFTLTISSLQPEDFATYYCQQYFIYPRTFGQGTKVEIK			binds
h26D3 variant HC6 Fab (Fab, V domains shown, Single-mutant His-tagged Fab; also called Y55A) VH: EVQLVQSGAEVKKPGSSVKVSCKASGYIFTDYNMDWVRQAPGQGLEWIGDINPDADTTSYNEKFKGRATLTVDKSTSTAYMELSSLRSEDTAVYYCARGGYSGSSYYHPMDYWGQGTLVTVSS VL: DIQMTQSPSSVSASVGDRVTITCKSSQSLLYSTNQKNYLAWYQQKPGKAPKLLIYWASTRESGVPSRFSGSGSGTDFTLTISSLQPEDFATYYCQQYFIYPRTFGQGTKVEIK	156	164	
h26D3-HC6/LC5 (Fab, V domains shown, His-tagged Fab; also called double alanine mutant of h26D3 (VH Y55A, VL Y97A)) VH: EVQLVQSGAEVKKPGSSVKVSCKASGYIFTDYNMDWVRQAPGQGLEWIGDINPDADTTSYNEKFKGRATLTVDKSTSTAYMELSSLRSEDTAVYYCARGGYSGSSYYHPMDYWGQGTLVTVSS VL: DIQMTQSPSSVSASVGDRVTITCKSSQSLLYSTNQKNYLAWYQQKPGKAPKLLIYWASTRESGVPSRFSGSGSGTDFTLTISSLQPEDFATYYCQQAFIYPRTFGQGTKVEIK			binds
h26D3 variant HC11 Fab (Fab, V domains shown, Single-mutant His-tagged Fab; also called Y107A) VH: EVQLVQSGAEVKKPGSSVKVSCKASGYIFTDYNMDWVRQAPGQGLEWIGDINPDYDTTSYNEKFKGRATLTVDKSTSTAYMELSSLRSEDTAVYYCARGGYSGSSYAHPMDYWGQGTLVTVSS VL: DIQMTQSPSSVSASVGDRVTITCKSSQSLLYSTNQKNYLAWYQQKPGKAPKLLIYWASTRESGVPSRFSGSGSGTDFTLTISSLQPEDFATYYCQQYFIYPRTFGQGTKVEIK	388	2.7	
h26D3 variant HC10 Fab (Fab, V domains shown, Single-mutant His-tagged Fab; also called Y106A) VH: EVQLVQSGAEVKKPGSSVKVSCKASGYIFTDYNMDWVRQAPGQGLEWIGDINPDYDTTSYNEKFKGRATLTVDKSTSTAYMELSSLRSEDTAVYYCARGGYSGSSAYHPMDYWGQGTLVTVSS VL: DIQMTQSPSSVSASVGDRVTITCKSSQSLLYSTNQKNYLAWYQQKPGKAPKLLIYWASTRESGVPSRFSGSGSGTDFTLTISSLQPEDFATYYCQQYFIYPRTFGQGTKVEIK	9.2	4.6	
h26D3-HC6/LC1 (Fab, V domains shown, His-tagged Fab; also called double alanine mutant of h26D3 (VH Y55A, VL Y31A)) VH: EVQLVQSGAEVKKPGSSVKVSCKASGYIFTDYNMDWVRQAPGQGLEWIGDINPDADTTSYNEKFKGRATLTVDKSTSTAYMELSSLRSEDTAVYYCARGGYSGSSYYHPMDYWGQGTLVTVSS VL: DIQMTQSPSSVSASVGDRVTITCKSSQSLLASTNQKNYLAWYQQKPGKAPKLLIYWASTRESGVPSRFSGSGSGTDFTLTISSLQPEDFATYYCQQYFIYPRTFGQGTKVEIK			binds
h26D3 variant LC1 Fab (Fab, V domains shown, Single-mutant His-tagged Fab; also called Y31A) VH: EVQLVQSGAEVKKPGSSVKVSCKASGYIFTDYNMDWVRQAPGQGLEWIGDINPDYDTTSYNEKFKGRATLTVDKSTSTAYMELSSLRSEDTAVYYCARGGYSGSSYYHPMDYWGQGTLVTVSS VL: DIQMTQSPSSVSASVGDRVTITCKSSQSLLASTNQKNYLAWYQQKPGKAPKLLIYWASTRESGVPSRFSGSGSGTDFTLTISSLQPEDFATYYCQQYFIYPRTFGQGTKVEIK	14	70	
h26D3 variant HC4 Fab (Fab, V domains shown, Single-mutant His-tagged Fab; also called D50A) VH: EVQLVQSGAEVKKPGSSVKVSCKASGYIFTDYNMDWVRQAPGQGLEWIGAINPDYDTTSYNEKFKGRATLTVDKSTSTAYMELSSLRSEDTAVYYCARGGYSGSSYYHPMDYWGQGTLVTVSS VL: DIQMTQSPSSVSASVGDRVTITCKSSQSLLYSTNQKNYLAWYQQKPGKAPKLLIYWASTRESGVPSRFSGSGSGTDFTLTISSLQPEDFATYYCQQYFIYPRTFGQGTKVEIK	5.1	8	
h26D3 variant HC8 Fab (Fab, V domains shown, Single-mutant His-tagged Fab; also called Y60A) VH: EVQLVQSGAEVKKPGSSVKVSCKASGYIFTDYNMDWVRQAPGQGLEWIGDINPDYDTTSANEKFKGRATLTVDKSTSTAYMELSSLRSEDTAVYYCARGGYSGSSYYHPMDYWGQGTLVTVSS VL: DIQMTQSPSSVSASVGDRVTITCKSSQSLLYSTNQKNYLAWYQQKPGKAPKLLIYWASTRESGVPSRFSGSGSGTDFTLTISSLQPEDFATYYCQQYFIYPRTFGQGTKVEIK	10	19	
h26D3 variant HC5 Fab (Fab, V domains shown, Single-mutant His-tagged Fab; also called D54A) VH: EVQLVQSGAEVKKPGSSVKVSCKASGYIFTDYNMDWVRQAPGQGLEWIGDINPAYDTTSYNEKFKGRATLTVDKSTSTAYMELSSLRSEDTAVYYCARGGYSGSSYYHPMDYWGQGTLVTVSS VL: DIQMTQSPSSVSASVGDRVTITCKSSQSLLYSTNQKNYLAWYQQKPGKAPKLLIYWASTRESGVPSRFSGSGSGTDFTLTISSLQPEDFATYYCQQYFIYPRTFGQGTKVEIK	20	39	
